{"source": "the supplement of paper PMC10065799", "about": "“High-throughput profiling of sequence recognition by tyrosine kinases and SH2 domains using bacterial peptide display” (eLife, 2023);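 note: 11-residue human phosphosite peptides and single-mutation variants displayed on the E. coli surface, counted by deep sequencing, each peptide's frequency after selection divided by its frequency in the unselected input library; frequency after pTyr selection over input frequency; kinase dosed for 20-30% of maximal phosphorylation in three min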"}
{"target": "FGFR3 (UniProt P22607)", "sequence (P22607 whole entry, looked up)": "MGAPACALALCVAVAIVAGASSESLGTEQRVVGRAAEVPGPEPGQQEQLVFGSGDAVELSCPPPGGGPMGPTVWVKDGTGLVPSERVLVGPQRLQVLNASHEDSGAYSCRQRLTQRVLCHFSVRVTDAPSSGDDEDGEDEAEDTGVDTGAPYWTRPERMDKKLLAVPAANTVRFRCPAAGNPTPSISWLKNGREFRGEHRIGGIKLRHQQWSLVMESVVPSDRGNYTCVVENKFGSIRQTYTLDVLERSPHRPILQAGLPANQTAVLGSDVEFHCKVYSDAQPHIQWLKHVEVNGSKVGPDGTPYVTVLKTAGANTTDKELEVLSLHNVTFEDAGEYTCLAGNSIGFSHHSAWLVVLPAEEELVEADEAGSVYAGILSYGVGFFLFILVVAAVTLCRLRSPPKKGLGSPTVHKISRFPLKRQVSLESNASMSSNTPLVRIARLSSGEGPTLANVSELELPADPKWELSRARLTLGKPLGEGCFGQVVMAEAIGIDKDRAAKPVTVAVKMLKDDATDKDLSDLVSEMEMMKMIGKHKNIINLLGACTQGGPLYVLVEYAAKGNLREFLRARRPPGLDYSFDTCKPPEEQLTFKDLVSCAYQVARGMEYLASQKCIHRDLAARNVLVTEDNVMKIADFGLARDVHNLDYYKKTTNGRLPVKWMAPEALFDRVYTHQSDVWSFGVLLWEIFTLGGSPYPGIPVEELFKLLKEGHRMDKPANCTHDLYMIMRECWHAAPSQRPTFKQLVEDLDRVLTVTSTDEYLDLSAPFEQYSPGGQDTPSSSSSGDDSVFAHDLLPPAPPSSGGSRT", "assay": "phosphorylation enrichment, bacterial display (enrichment ratio); higher = better substrate or ligand; peptides without Tyr show the background"}
{"sequence": "VLPIDYFFPPQ [AR_Y552_YF]", "phosphorylation enrichment": 9.06}
{"sequence": "GRTNIYKNKKD [SLC26A3_Y520]", "phosphorylation enrichment": 0.475}
{"sequence": "RLLRGYDQSAF [HLA-C_Y137_YF]", "phosphorylation enrichment": 0.712}
{"sequence": "RPSELYYSKIG [SMG1_Y2253]", "phosphorylation enrichment": 1.84}
{"sequence": "VTQEQYELHCE [CBL_Y368_Y371H]", "phosphorylation enrichment": 0.874}
{"sequence": "KWHREYNSKFV [RICTOR_Y835_YF]", "phosphorylation enrichment": 0.49}
{"sequence": "SGRSGYCLGTR [SCO1_Y60_P58S]", "phosphorylation enrichment": 0.432}
{"sequence": "QADVTYVNTQL [MERTK_Y872_I871T]", "phosphorylation enrichment": 0.606}
{"sequence": "GPIIRYDLGGA [CYP11B1_Y81_F79I]", "phosphorylation enrichment": 0.498}
{"sequence": "IIGNGYFFRVF [MYBPC3_Y1135_YF]", "phosphorylation enrichment": 0.538}
{"sequence": "TTSQPYRCLCS [USH2A_Y534]", "phosphorylation enrichment": 0.707}
{"sequence": "DLDATYRPMYS [JUP_Y701_M697L]", "phosphorylation enrichment": 0.512}
{"sequence": "WIGRKYKKVRF [F8_Y442_R437W]", "phosphorylation enrichment": 0.54}
{"sequence": "DLDTEYGSGYP [RNASEH2A_Y206_D205E]", "phosphorylation enrichment": 0.652}
{"sequence": "AGRSGYDNREI [BCL2_Y9_T7S]", "phosphorylation enrichment": 0.49}
{"sequence": "SFCFRYCCAAR [SUMF1_Y344_R345C_YF]", "phosphorylation enrichment": 0.723}
{"sequence": "AGTILYHAHLD [ASS1_Y291]", "phosphorylation enrichment": 0.497}
{"sequence": "ALWYIYLHTRS [ENG_Y614_S615L]", "phosphorylation enrichment": 0.821}
{"sequence": "FNDSAYNQQLI [ZPLD1_Y198_T197A_YF]", "phosphorylation enrichment": 0.451}
{"sequence": "ETDTRYFDEEF [AKT1_Y437]", "phosphorylation enrichment": 0.81}
{"sequence": "LDVDVYGPSVP [NUBPL_Y109]", "phosphorylation enrichment": 0.72}
{"sequence": "LTELGYSFVTT [ACTA1_Y200_R198L]", "phosphorylation enrichment": 3.42}
{"sequence": "FPKARYHWLVL [APTX_Y214_YF]", "phosphorylation enrichment": 0.777}
{"sequence": "SLDLSYYHTSS [EMD_Y181_P183H]", "phosphorylation enrichment": 1.19}
{"sequence": "LVRAFYCERRR [CARD11_Y970]", "phosphorylation enrichment": 0.585}
{"sequence": "RPFFLYVAFHD [SGSH_Y174]", "phosphorylation enrichment": 0.941}
{"sequence": "RRNTFYASIAK [ACADM_Y353_YF]", "phosphorylation enrichment": 0.583}
{"sequence": "ISGLKYPVSQQ [BTK_Y375_R372G]", "phosphorylation enrichment": 0.459}
{"sequence": "VLALWYFFLTH [ZDHHC23_Y127_YF]", "phosphorylation enrichment": 1.76}
{"test_system": "Fer (mouse)", "assay": "phosphorylation enrichment, bacterial display (enrichment ratio); higher = better substrate or ligand; peptides without Tyr show the background"}
{"sequence": "VLPIDYFFPPQ [AR_Y552_YF]", "phosphorylation enrichment": 0.35}
{"sequence": "GRTNIYKNKKD [SLC26A3_Y520]", "phosphorylation enrichment": 0.349}
{"sequence": "RLLRGYDQSAF [HLA-C_Y137_YF]", "phosphorylation enrichment": 0.502}
{"sequence": "RPSELYYSKIG [SMG1_Y2253]", "phosphorylation enrichment": 1.59}
{"sequence": "VTQEQYELHCE [CBL_Y368_Y371H]", "phosphorylation enrichment": 0.736}
{"sequence": "KWHREYNSKFV [RICTOR_Y835_YF]", "phosphorylation enrichment": 0.422}
{"sequence": "SGRSGYCLGTR [SCO1_Y60_P58S]", "phosphorylation enrichment": 0.399}
{"sequence": "QADVTYVNTQL [MERTK_Y872_I871T]", "phosphorylation enrichment": 0.714}
{"sequence": "GPIIRYDLGGA [CYP11B1_Y81_F79I]", "phosphorylation enrichment": 0.396}
{"sequence": "IIGNGYFFRVF [MYBPC3_Y1135_YF]", "phosphorylation enrichment": 0.394}
{"sequence": "TTSQPYRCLCS [USH2A_Y534]", "phosphorylation enrichment": 0.509}
{"sequence": "DLDATYRPMYS [JUP_Y701_M697L]", "phosphorylation enrichment": 0.433}
{"sequence": "WIGRKYKKVRF [F8_Y442_R437W]", "phosphorylation enrichment": 0.492}
{"sequence": "DLDTEYGSGYP [RNASEH2A_Y206_D205E]", "phosphorylation enrichment": 0.505}
{"sequence": "AGRSGYDNREI [BCL2_Y9_T7S]", "phosphorylation enrichment": 0.32}
{"sequence": "SFCFRYCCAAR [SUMF1_Y344_R345C_YF]", "phosphorylation enrichment": 0.517}
{"sequence": "AGTILYHAHLD [ASS1_Y291]", "phosphorylation enrichment": 0.398}
{"sequence": "ALWYIYLHTRS [ENG_Y614_S615L]", "phosphorylation enrichment": 0.514}
{"sequence": "FNDSAYNQQLI [ZPLD1_Y198_T197A_YF]", "phosphorylation enrichment": 0.326}
{"sequence": "ETDTRYFDEEF [AKT1_Y437]", "phosphorylation enrichment": 0.563}
{"sequence": "LDVDVYGPSVP [NUBPL_Y109]", "phosphorylation enrichment": 1.2}
{"sequence": "LTELGYSFVTT [ACTA1_Y200_R198L]", "phosphorylation enrichment": 2.05}
{"sequence": "FPKARYHWLVL [APTX_Y214_YF]", "phosphorylation enrichment": 0.675}
{"sequence": "SLDLSYYHTSS [EMD_Y181_P183H]", "phosphorylation enrichment": 0.453}
{"sequence": "LVRAFYCERRR [CARD11_Y970]", "phosphorylation enrichment": 0.624}
{"sequence": "RPFFLYVAFHD [SGSH_Y174]", "phosphorylation enrichment": 0.47}
{"sequence": "RRNTFYASIAK [ACADM_Y353_YF]", "phosphorylation enrichment": 0.367}
{"sequence": "ISGLKYPVSQQ [BTK_Y375_R372G]", "phosphorylation enrichment": 0.371}
{"sequence": "VLALWYFFLTH [ZDHHC23_Y127_YF]", "phosphorylation enrichment": 0.644}
{"target": "Fes (UniProt P07332)", "sequence (P07332 whole entry, looked up)": "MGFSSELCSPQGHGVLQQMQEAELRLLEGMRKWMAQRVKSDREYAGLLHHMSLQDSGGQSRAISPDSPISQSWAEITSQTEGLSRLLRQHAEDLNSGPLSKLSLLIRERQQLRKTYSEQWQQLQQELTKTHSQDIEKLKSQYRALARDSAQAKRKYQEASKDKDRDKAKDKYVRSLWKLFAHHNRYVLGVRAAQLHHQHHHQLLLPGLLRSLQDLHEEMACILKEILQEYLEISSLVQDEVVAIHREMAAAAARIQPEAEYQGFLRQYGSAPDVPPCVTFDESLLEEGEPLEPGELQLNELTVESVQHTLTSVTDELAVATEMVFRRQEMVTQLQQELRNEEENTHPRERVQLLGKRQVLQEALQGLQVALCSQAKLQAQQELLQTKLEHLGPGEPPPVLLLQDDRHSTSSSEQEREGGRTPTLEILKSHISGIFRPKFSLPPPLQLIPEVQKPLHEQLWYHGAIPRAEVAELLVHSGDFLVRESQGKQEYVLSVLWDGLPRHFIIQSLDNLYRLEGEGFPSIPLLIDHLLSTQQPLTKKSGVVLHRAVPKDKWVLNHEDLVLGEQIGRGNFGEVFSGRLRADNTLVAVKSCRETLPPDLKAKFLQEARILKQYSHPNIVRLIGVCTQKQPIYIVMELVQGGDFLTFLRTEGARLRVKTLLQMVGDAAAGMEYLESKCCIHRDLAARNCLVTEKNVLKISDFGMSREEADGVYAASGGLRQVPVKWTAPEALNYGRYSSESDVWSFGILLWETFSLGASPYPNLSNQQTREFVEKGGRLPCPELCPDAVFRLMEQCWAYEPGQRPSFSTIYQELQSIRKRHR", "assay": "phosphorylation enrichment, bacterial display (enrichment ratio); higher = better substrate or ligand; peptides without Tyr show the background"}
{"sequence": "VLPIDYFFPPQ [AR_Y552_YF]", "phosphorylation enrichment": 0.82}
{"sequence": "GRTNIYKNKKD [SLC26A3_Y520]", "phosphorylation enrichment": 0.648}
{"sequence": "RLLRGYDQSAF [HLA-C_Y137_YF]", "phosphorylation enrichment": 0.592}
{"sequence": "RPSELYYSKIG [SMG1_Y2253]", "phosphorylation enrichment": 1.23}
{"sequence": "VTQEQYELHCE [CBL_Y368_Y371H]", "phosphorylation enrichment": 1.35}
{"sequence": "KWHREYNSKFV [RICTOR_Y835_YF]", "phosphorylation enrichment": 0.623}
{"sequence": "SGRSGYCLGTR [SCO1_Y60_P58S]", "phosphorylation enrichment": 0.834}
{"sequence": "QADVTYVNTQL [MERTK_Y872_I871T]", "phosphorylation enrichment": 0.942}
{"sequence": "GPIIRYDLGGA [CYP11B1_Y81_F79I]", "phosphorylation enrichment": 0.723}
{"sequence": "IIGNGYFFRVF [MYBPC3_Y1135_YF]", "phosphorylation enrichment": 0.98}
{"sequence": "TTSQPYRCLCS [USH2A_Y534]", "phosphorylation enrichment": 0.941}
{"sequence": "DLDATYRPMYS [JUP_Y701_M697L]", "phosphorylation enrichment": 0.86}
{"sequence": "WIGRKYKKVRF [F8_Y442_R437W]", "phosphorylation enrichment": 0.611}
{"sequence": "DLDTEYGSGYP [RNASEH2A_Y206_D205E]", "phosphorylation enrichment": 1.01}
{"sequence": "AGRSGYDNREI [BCL2_Y9_T7S]", "phosphorylation enrichment": 0.635}
{"sequence": "SFCFRYCCAAR [SUMF1_Y344_R345C_YF]", "phosphorylation enrichment": 1.23}
{"sequence": "AGTILYHAHLD [ASS1_Y291]", "phosphorylation enrichment": 0.703}
{"sequence": "ALWYIYLHTRS [ENG_Y614_S615L]", "phosphorylation enrichment": 1.39}
{"sequence": "FNDSAYNQQLI [ZPLD1_Y198_T197A_YF]", "phosphorylation enrichment": 0.672}
{"sequence": "ETDTRYFDEEF [AKT1_Y437]", "phosphorylation enrichment": 1.29}
{"sequence": "LDVDVYGPSVP [NUBPL_Y109]", "phosphorylation enrichment": 1.28}
{"sequence": "LTELGYSFVTT [ACTA1_Y200_R198L]", "phosphorylation enrichment": 3.61}
{"sequence": "FPKARYHWLVL [APTX_Y214_YF]", "phosphorylation enrichment": 0.945}
{"sequence": "SLDLSYYHTSS [EMD_Y181_P183H]", "phosphorylation enrichment": 0.951}
{"sequence": "LVRAFYCERRR [CARD11_Y970]", "phosphorylation enrichment": 0.713}
{"sequence": "RPFFLYVAFHD [SGSH_Y174]", "phosphorylation enrichment": 1.58}
{"sequence": "RRNTFYASIAK [ACADM_Y353_YF]", "phosphorylation enrichment": 0.622}
{"sequence": "ISGLKYPVSQQ [BTK_Y375_R372G]", "phosphorylation enrichment": 0.548}
{"sequence": "VLALWYFFLTH [ZDHHC23_Y127_YF]", "phosphorylation enrichment": 1.76}
{"target": "Fyn (UniProt P06241)", "sequence (P06241 whole entry, looked up)": "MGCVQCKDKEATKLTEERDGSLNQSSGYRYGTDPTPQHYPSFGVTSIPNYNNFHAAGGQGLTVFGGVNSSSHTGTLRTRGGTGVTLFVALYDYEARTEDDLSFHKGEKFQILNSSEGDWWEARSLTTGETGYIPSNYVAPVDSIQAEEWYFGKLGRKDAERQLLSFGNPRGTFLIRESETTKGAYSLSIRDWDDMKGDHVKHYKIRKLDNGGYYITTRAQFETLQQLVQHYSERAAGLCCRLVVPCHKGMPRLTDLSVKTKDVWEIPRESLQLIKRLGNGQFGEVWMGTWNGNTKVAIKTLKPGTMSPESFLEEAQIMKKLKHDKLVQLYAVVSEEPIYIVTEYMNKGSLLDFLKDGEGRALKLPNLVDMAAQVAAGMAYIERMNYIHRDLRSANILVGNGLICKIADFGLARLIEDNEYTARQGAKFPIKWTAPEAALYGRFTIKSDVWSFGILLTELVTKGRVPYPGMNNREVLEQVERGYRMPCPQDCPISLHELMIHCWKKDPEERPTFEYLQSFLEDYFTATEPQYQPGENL", "assay": "phosphorylation enrichment, bacterial display (enrichment ratio); higher = better substrate or ligand; peptides without Tyr show the background"}
{"sequence": "VLPIDYFFPPQ [AR_Y552_YF]", "phosphorylation enrichment": 0.574}
{"sequence": "GRTNIYKNKKD [SLC26A3_Y520]", "phosphorylation enrichment": 0.308}
{"sequence": "RLLRGYDQSAF [HLA-C_Y137_YF]", "phosphorylation enrichment": 0.416}
{"sequence": "RPSELYYSKIG [SMG1_Y2253]", "phosphorylation enrichment": 1.69}
{"sequence": "VTQEQYELHCE [CBL_Y368_Y371H]", "phosphorylation enrichment": 0.576}
{"sequence": "KWHREYNSKFV [RICTOR_Y835_YF]", "phosphorylation enrichment": 0.364}
{"sequence": "SGRSGYCLGTR [SCO1_Y60_P58S]", "phosphorylation enrichment": 0.341}
{"sequence": "QADVTYVNTQL [MERTK_Y872_I871T]", "phosphorylation enrichment": 0.518}
{"sequence": "GPIIRYDLGGA [CYP11B1_Y81_F79I]", "phosphorylation enrichment": 0.412}
{"sequence": "IIGNGYFFRVF [MYBPC3_Y1135_YF]", "phosphorylation enrichment": 0.258}
{"sequence": "TTSQPYRCLCS [USH2A_Y534]", "phosphorylation enrichment": 0.557}
{"sequence": "DLDATYRPMYS [JUP_Y701_M697L]", "phosphorylation enrichment": 0.46}
{"sequence": "WIGRKYKKVRF [F8_Y442_R437W]", "phosphorylation enrichment": 0.552}
{"sequence": "DLDTEYGSGYP [RNASEH2A_Y206_D205E]", "phosphorylation enrichment": 0.49}
{"sequence": "AGRSGYDNREI [BCL2_Y9_T7S]", "phosphorylation enrichment": 0.426}
{"sequence": "SFCFRYCCAAR [SUMF1_Y344_R345C_YF]", "phosphorylation enrichment": 0.487}
{"sequence": "AGTILYHAHLD [ASS1_Y291]", "phosphorylation enrichment": 0.479}
{"sequence": "ALWYIYLHTRS [ENG_Y614_S615L]", "phosphorylation enrichment": 0.432}
{"sequence": "FNDSAYNQQLI [ZPLD1_Y198_T197A_YF]", "phosphorylation enrichment": 0.393}
{"sequence": "ETDTRYFDEEF [AKT1_Y437]", "phosphorylation enrichment": 0.544}
{"sequence": "LDVDVYGPSVP [NUBPL_Y109]", "phosphorylation enrichment": 1.47}
{"sequence": "LTELGYSFVTT [ACTA1_Y200_R198L]", "phosphorylation enrichment": 1.88}
{"sequence": "FPKARYHWLVL [APTX_Y214_YF]", "phosphorylation enrichment": 0.491}
{"sequence": "SLDLSYYHTSS [EMD_Y181_P183H]", "phosphorylation enrichment": 0.543}
{"sequence": "LVRAFYCERRR [CARD11_Y970]", "phosphorylation enrichment": 0.844}
{"sequence": "RPFFLYVAFHD [SGSH_Y174]", "phosphorylation enrichment": 0.381}
{"sequence": "RRNTFYASIAK [ACADM_Y353_YF]", "phosphorylation enrichment": 0.482}
{"sequence": "ISGLKYPVSQQ [BTK_Y375_R372G]", "phosphorylation enrichment": 0.441}
{"sequence": "VLALWYFFLTH [ZDHHC23_Y127_YF]", "phosphorylation enrichment": 0.614}
